# Reference: US20260256927A1 (Merck Sharp & Dohme, published 2026)
# Where a chain is given by its changes, count along the chain named. Names and notes keep the numbering of the source.
# T1: IL-2Rα-Fc (Acro Biosystems, catalog #ILA-H5251) (UniProt P01589 22-217, limits assumed)
# T1 construct: Bought reagent; Captured on an anti-Fc chip as SPR ligand; also called CD25; not shown: Fc part of the bought fusion
# T1 sequence (looked up): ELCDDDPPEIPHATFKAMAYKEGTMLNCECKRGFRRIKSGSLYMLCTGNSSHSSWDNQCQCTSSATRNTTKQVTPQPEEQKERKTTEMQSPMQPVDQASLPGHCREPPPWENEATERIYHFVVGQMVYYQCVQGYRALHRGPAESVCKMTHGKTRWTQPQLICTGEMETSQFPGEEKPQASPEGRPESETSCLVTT
# T2: IL-2Rβ-Fc (Acro Biosystems, catalog #ILB-H5253) (UniProt P14784 27-239, limits assumed)
# T2 construct: Bought reagent; Captured on an anti-Fc chip as SPR ligand; also called CD122; not shown: Fc part of the bought fusion
# T2 sequence (looked up): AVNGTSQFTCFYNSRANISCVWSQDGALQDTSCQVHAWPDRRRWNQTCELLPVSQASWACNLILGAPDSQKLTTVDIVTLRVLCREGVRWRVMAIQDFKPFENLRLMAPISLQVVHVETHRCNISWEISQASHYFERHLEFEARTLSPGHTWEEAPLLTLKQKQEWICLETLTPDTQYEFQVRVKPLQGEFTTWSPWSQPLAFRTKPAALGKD
# B1: Aldesleukin-6His_S4/K34/F77 pAMF (SP10682) conjugated to SC547 stump (ligand)
# chain: MPTSFSTKKTQLQLEHLLLDLQMILNGINNYKNPFLTRMLTFKFYMPKKATELKHLQCLEEELKPLEEVLNLAQSKNFHLRPRDLISNINVIVLELKGSETTFMCEYADETATIVEFLNRWITFSQSIISTLTGGSHHHHHH
# modifications: X5, X35, X78 = pAMF (S4, K34, F77), each conjugated to SC547 (conjugation stump)
# notes: also called SP10722 stump conjugate
# B2: Aldesleukin-6His_S4/K34/V114 pAMF (SP10683) conjugated to SC547 stump (ligand)
# chain: B1 chain with V115F
# modifications: X5, X35, X115 = pAMF (S4, K34, V114), each conjugated to SC547 (conjugation stump)
# notes: also called SP10723 stump conjugate
# B3: Aldesleukin-6His_S4/Y30/K34/Q73 pAMF (SP10686) conjugated to SC547 stump (ligand)
# chain: B1 chain with Y31F, Q74F
# modifications: X5, X31, X35, X74 = pAMF (S4, Y30, K34, Q73), each conjugated to SC547 (conjugation stump)
# notes: also called SP10726 stump conjugate
# B4: Aldesleukin-6His_S4/Y30/K34/V114 pAMF (SP10687) conjugated to SC547 stump (ligand)
# chain: B1 chain with Y31F, V115F
# modifications: X5, X31, X35, X115 = pAMF (S4, Y30, K34, V114), each conjugated to SC547 (conjugation stump)
# notes: also called SP10727 stump conjugate
# B5: Aldesleukin_S4/K34/V114 pAMF (SP10774) conjugated to SC547 stump (ligand)
# chain: MPTSFSTKKTQLQLEHLLLDLQMILNGINNYKNPFLTRMLTFKFYMPKKATELKHLQCLEEELKPLEEVLNLAQSKNFHLRPRDLISNINVIVLELKGSETTFMCEYADETATIFEFLNRWITFSQSIISTLT
# modifications: X5, X35, X115 = pAMF (S4, K34, V114), each conjugated to SC547 (conjugation stump)
# notes: also called SP10782 stump conjugate
# B6: Aldesleukin_S4/Y30/K34/Q73 pAMF (SP10776) conjugated to SC547 stump (ligand)
# chain: B5 chain with Y31F, Q74F, F115V
# modifications: X5, X31, X35, X74 = pAMF (S4, Y30, K34, Q73), each conjugated to SC547 (conjugation stump)
# notes: also called SP10784 stump conjugate
# B7: Aldesleukin-6His_S4/Y30/K34 pAMF F41K (SP10684) conjugated to SC547 stump (ligand)
# chain: B1 chain with Y31F, F42K
# modifications: X5, X31, X35 = pAMF (S4, Y30, K34), each conjugated to SC547 (conjugation stump)
# notes: also called SP10724 stump conjugate
# B8: Aldesleukin-6His_S4/Y30/K34/R80 pAMF F41K (SP10688) conjugated to SC547 stump (ligand)
# chain: B1 chain with Y31F, F42K, R81F
# modifications: X5, X31, X35, X81 = pAMF (S4, Y30, K34, R80), each conjugated to SC547 (conjugation stump)
# notes: also called SP10728 stump conjugate
# B9: Aldesleukin_S4/Y30/K34 pAMF (SP10480) conjugated to SC547 stump (ligand)
# chain: B5 chain with Y31F, F115V
# modifications: X5, X31, X35 = pAMF (S4, Y30, K34), each conjugated to SC547 (conjugation stump)
# notes: also called SP10504 stump conjugate
# B10: Aldesleukin_S4/Y30/K34/V114 pAMF (SP10777) conjugated to SC547 stump (ligand)
# chain: B5 chain with Y31F
# modifications: X5, X31, X35, X115 = pAMF (S4, Y30, K34, V114), each conjugated to SC547 (conjugation stump)
# notes: also called SP10785 stump conjugate
# B11: SP10725 (Aldesleukin-6His_S4/Y30/K34/R80 pAMF conjugated to SC579) (ligand)
# chain: B1 chain with Y31F, R81F
# modifications: X5, X31, X35, X81 = pAMF (S4, Y30, K34, R80), each conjugated to SC579 (releasable 20 kDa mPEG Fmoc-DBCO linker)
# notes: also called SP10725 PEG conjugate
# B12: SP10728 (Aldesleukin-6His_S4/Y30/K34/R80 pAMF F41K conjugated to SC579) (ligand)
# chain: B1 chain with Y31F, F42K, R81F
# modifications: X5, X31, X35, X81 = pAMF (S4, Y30, K34, R80), each conjugated to SC579 (releasable 20 kDa mPEG Fmoc-DBCO linker)
# notes: also called SP10728 PEG conjugate
# B13: SP10724 (Aldesleukin-6His_S4/Y30/K34 pAMF F41K conjugated to SC579) (ligand)
# chain: B1 chain with Y31F, F42K
# modifications: X5, X31, X35 = pAMF (S4, Y30, K34), each conjugated to SC579 (releasable 20 kDa mPEG Fmoc-DBCO linker)
# notes: also called SP10724 PEG conjugate
# B14: Ald-6HIS_S4pAMF (SP9954) conjugated to DBCO 2 x 10 kDa PEG (PEG2) (ligand)
# chain: B1 chain with F35K
# modifications: X5 = pAMF (S4) conjugated to branched 20 kDa PEG (DBCO 2 x 10 kDa PEG, PEG2)
# notes: also called SP9954 PEG2 conjugated
# B15: Ald-6HIS_Y30pAMF (SP9957), unconjugated (ligand)
# chain: B1 chain with F5S, Y31F, F35K
# modifications: X31 = pAMF (Y30 in SEQ ID NO: 2/3 numbering)
# notes: also called Aldesleukin-6His Y30TAG p-azidomethyl-L-phenylalanine
# B16: Ald-6HIS_V114pAMF (SP9970) conjugated to DBCO 2 x 10 kDa PEG (PEG2) (ligand)
# chain: B1 chain with F5S, F35K, V115F
# modifications: X115 = pAMF (V114) conjugated to branched 20 kDa PEG (DBCO 2 x 10 kDa PEG, PEG2)
# notes: also called SP9970 PEG2 conjugated
# B17: Ald-6HIS_V114pAMF (SP9970), unconjugated (ligand)
# chain: B1 chain with F5S, F35K, V115F
# modifications: X115 = pAMF (V114 in SEQ ID NO: 2/3 numbering)
# notes: also called Aldesleukin-6His V114TAG p-azidomethyl-L-phenylalanine
# B18: Ald-6HIS_S4pAMF (SP9954), unconjugated (ligand)
# chain: B1 chain with F35K
# modifications: X5 = p-azidomethyl-L-phenylalanine (pAMF; S4 in SEQ ID NO: 2/3 numbering)
# notes: also called Aldesleukin-6His S4TAG p-azidomethyl-L-phenylalanine
# B19: Ald-6HIS_Y30pAMF (SP9957) conjugated to DBCO 2 x 10 kDa PEG (PEG2) (ligand)
# chain: B1 chain with F5S, Y31F, F35K
# modifications: X31 = pAMF (Y30) conjugated to branched 20 kDa PEG (DBCO 2 x 10 kDa PEG, PEG2)
# notes: also called SP9957 PEG2 conjugated
# B20: Ald-6HIS_R80pAMF (SP9968) conjugated to DBCO 2 x 10 kDa PEG (PEG2) (ligand)
# chain: B1 chain with F5S, F35K, R81F
# modifications: X81 = pAMF (R80) conjugated to branched 20 kDa PEG (DBCO 2 x 10 kDa PEG, PEG2)
# notes: also called SP9968 PEG2 conjugated
# B21: Ald-6HIS_Q73pAMF (SP9965), unconjugated (ligand)
# chain: B1 chain with F5S, F35K, Q74F
# modifications: X74 = pAMF (Q73 in SEQ ID NO: 2/3 numbering)
# notes: also called Aldesleukin-6His Q73TAG p-azidomethyl-L-phenylalanine
# B22: Ald-6HIS_R80pAMF (SP9968), unconjugated (ligand)
# chain: B1 chain with F5S, F35K, R81F
# modifications: X81 = pAMF (R80 in SEQ ID NO: 2/3 numbering)
# notes: also called Aldesleukin-6His R80TAG p-azidomethyl-L-phenylalanine
# B23: Ald-6HIS_K34pAMF (SP9833), unconjugated (ligand)
# chain: B1 chain with F5S
# modifications: X35 = pAMF (K34 in SEQ ID NO: 2/3 numbering)
# notes: also called Aldesleukin-6His K34TAG p-azidomethyl-L-phenylalanine
# B24: Ald-6HIS_K34pAMF (SP9833) conjugated to DBCO 2 x 10 kDa PEG (PEG2) (ligand)
# chain: B1 chain with F5S
# modifications: X35 = pAMF (K34) conjugated to branched 20 kDa PEG (DBCO 2 x 10 kDa PEG, PEG2)
# notes: also called SP9833 PEG2 conjugated
# Target: T1, IL-2Rα-Fc (Acro Biosystems, catalog …)
# Test: SPR, kinetic binding to IL-2 receptor
row,Kd [nM],Binder
1,40,B1
2,300,B2
3,30,B3
4,100,B4
5,100,B5
6,9,B6

# Target: T2, IL-2Rβ-Fc (Acro Biosystems, catalog …)
# Test: SPR, kinetic binding to IL-2 receptor
row,Kd [nM],Binder
1,3000,B1
2,2000,B2
3,600,B3
4,3000,B7
5,2000,B8
6,1000,B4
7,700,B9
8,500,B5
9,300,B6
10,200,B10

# Target: T1, IL-2Rα-Fc (Acro Biosystems, catalog …)
# Test: SPR, receptor-Fc captured on anti-Fc chip
row,binding result,Binder
1,no binding,B11
2,no binding,B12
3,no binding,B13

# Target: T1, IL-2Rα-Fc (Acro Biosystems, catalog …)
# Test: SPR (Biacore T200), kinetic; receptor-Fc captured on anti-Fc CM5 chip, IL-2 variant as analyte
# Method: (§1) Anti-Fc polyclonal antibodies were immobilized onto a CM5 chip (GE Life Sciences) using amine coupling chemistry (from Amine Coupling Kit, GE Life Sciences). The immobilization steps were carried out at a flow rate of 25 μL/minute in 1×HBS-EP+ buffer (GE Life Sciences; 10× Stock diluted before use). The sensor surfaces were activated for 7 minutes with a mixture of NHS (0.05 M) and EDC (0.2 M). The anti-Fc antibodies were injected over all four flow cells at a concentration of 25 μg/mL in 10 mM sodium acetate, pH 4.5, for seven minutes. Ethanolamine (1 M, pH 8.5) was injected for seven minutes to block any remaining activated groups.
# (§2) Kinetic binding experiments were performed at 25° C. using 1×HBS-EP+ with 0.05% BSA buffer. IL-2Rα-Fc or IL-2Rβ-Fc (Acro Biosystems, catalog #ILA-H5251, ILB-H5253) was injected over the anti-Fc surface at concentrations of 3-10 μg/mL for 12 seconds at a flow rate of 10 μL/minute on flow cells 2, 3 and 4, followed by a buffer wash for 30 seconds at the same flow rate. Kinetic characterization of conjugated or unconjugated aldesleukin or variants was carried out in a range of concentrations from 1 nM-10 μM and one injection of no antigen. After capturing ligand (IL-2Rα-Fc or IL-2Rβ-Fc) on the anti-Fc surface, the analyte (IL-2 variant) was bound for 60 seconds, followed by a 180 second dissociation phase at a flow rate of 50 μL/min. Between each ligand capture and analyte binding cycle, regeneration was carried out using two injections of 10 mM Glycine pH 1.5 for 30 seconds at 30 μL/minute, followed by a 30 second buffer wash step.
row,Kd [nM],Binder
1,100,B14
2,9,B15
3,500,B16
4,50,B17
5,8,B18
6,300,B19
7,100,B20
8,7,B21
9,20,B22

# Target: T2, IL-2Rβ-Fc (Acro Biosystems, catalog …)
# Test: as above
# Method: as §1, §2
row,Kd [nM],Binder
1,200,B15
2,300,B17
3,300,B18
4,300,B23
5,80,B21
6,400,B22

# Target: T1, IL-2Rα-Fc (Acro Biosystems, catalog …)
# Test: SPR (Biacore T200), kinetic; receptor-Fc captured on anti-Fc CM5 chip, IL-2 variant as analyte; conjugated to DBCO 2 x 10 kDa PEG (PEG2)
# Method: as §1
# as §2, with “Between each ligand capture and analyte binding cycle, regeneration was carried out using two injections of 10 mM Glycine pH 1.5 for 30 seconds at 30 μL/minute, followed by a 30 second buffer wash step.” left out
row,Kd [nM],Binder
1,800,B24

# Target: T1, IL-2Rα-Fc (Acro Biosystems, catalog …)
# Test: SPR (Biacore T200), kinetic; receptor-Fc captured on anti-Fc CM5 chip, IL-2 variant as analyte; unconjugated (pAMF incorporated, no PEG)
# Method: as §1
# as §2, with “Between each ligand capture and analyte binding cycle, regeneration was carried out using two injections of 10 mM Glycine pH 1.5 for 30 seconds at 30 μL/minute, followed by a 30 second buffer wash step.” left out
row,Kd [nM],Binder
1,7,B23
